Reference: patent US20230322927A1

Key:
[1] = molecular target: human CD28 on cells (human) (UniProt P10747); experiment: flow cytometry on human CD2+/CD4+ T cells, Alexa647 read-out
[2] = molecular target: human CD28 on cells (human) (UniProt P10747); experiment: flow cytometry on human CD2+/CD8+ T cells, Alexa647 read-out
[3] = molecular target: cynomolgus CD28 on cynomolgus T cells (cynomolgus) (UniProt Q0PDN3); experiment: flow cytometry on cynomolgus CD2+/CD4+ T cells, Alexa647 read-out
[4] = molecular target: cynomolgus CD28 on cynomolgus T cells (cynomolgus) (UniProt Q0PDN3); experiment: flow cytometry on cynomolgus CD2+/CD8+ T cells, Alexa647 read-out

- EC50 (read off the curve) [1]: 50 pM
- EC50 (read off the curve) [2]: 50 pM
- EC50 (read off the curve) [3]: 50 pM
- EC50 (read off the curve) [4]: 50 pM
Substance: REGN5705 (antibody)
